Source: the DeepSol protein solubility set

Test: soluble on expression in E. coli; label from the status in PepcDB or PDB records
With “MIDEWPVPTAAAAVIGPSGVLATHGDDAKPFALASVTKLLVARAAQVAIEEGVVELDTPAGPDGSTVRHLLAHTSGVAMNSADTVAQVGQRRVYSNFGFGLLAHAIEDAAEIEFGRYLTEAVFEPLGMSTSKLLGGADAAGFGVTSTVSDLARFAGDLLRPALVSQQMHDEATSVQFPGVNGVLPGFGSQRPNDWGLGFEIRDGKTPHWTGSSNSPRTFGHFGQSGTFLWVDPVADLALLVLTDRDFGDWTYPLWPAISDGVLREIGTHLEHHHHHH” the “soluble on expression in E. coli” value was “not soluble”.
With “MARLFTLSESKYYLMALDAGTGSIRAVIFDLEGNQIAVGQAEWRHLAVPDVPGSMEFDLNKNWQLACECMRQALHNAGIAPEYIAAVSACSMREGIVLYNNEGAPIWACANVDARAAREVSELKELHNNTFENEVYRATGQTLALSAIPRLLWLAHHRSDIYRQASTITMISDWLAYMLSGELAVDPSNAGTTGLLDLTTRDWKPALLDMAGLRADILSPVKETGTLLGVVSSQAAELCGLKAGTPVVVGGGDVQLGCLGLGVVRPAQTAVLGGTFWQQVVNLAAPVTDPEMNVRVNPHVIPGMVQAESISFFTGLTMRWFRDAFCAEEKLIAERLGIDTYTLLEEMASRVPPGSWGVMPIFSDRMRFKTWYHAAPSFINLSIDPDKCNKATLFRALEENAAIVSACNLQQIADFSNIHPSSLVFAGGGSKGKLWSQILADVSGLPVNIPVVKEATALGCAIAAGVGAGIFSSMAETGERLVRWERTHTPDPEKHELYQDSRDKWQAVYQDQLGLVDHGLTTSLWKAPGL” the “soluble on expression in E. coli” value was “not soluble”.
With “TSKETFTHYQPQGNSDPAHTATAPGGLSAKAPAMTPLMLDTSSRKLVAWDGTTDGAAVGILAVAADQTSTTLTFYKSGTFRYEDVLWPEAASDETKKRTAFAGTAISIV” the “soluble on expression in E. coli” value was “soluble”.
In the case of “METDGDPTNEIPGSSMAFEVANHTVTEEPSPLDRILAEGRSFNGGNWSSDDLRSLLDGVMKYGTKIEAINYIHRNIVKKRSIEEIKAKIDEIREIIKEHKEIILPECYKNKWIEAGHHNITPPPFCQVDPNDDWSSIMGKIVDHHHGSINKTLPSLRDTYETLFENLALESKTHENAVVTKLLTAKATRTDSQNIRWPVIYRFMKACATLEEQMPALNELEAAVVSKVLDTIETEATTTPDTEKSILAGIFSECQQGNYRFCEQDYPPNVMAAVQLFVDPLRTRFHAIPEVASEVELINFTKDNQPSTSSN”, the “soluble on expression in E. coli” value is reported as “not soluble”.
With “MAHHHHHHMSGRAGRRGLDRVGVVIAMVDEAVEPETLKQLTGGGADVLNSSFHLTYNMVLNLLRVEDVDPEFMMHRSFAQFQRLRNRPVLEKRAEALTEEIESIHVEHEEVFRQFTLCQELLANRRKQLADILKQPTFLKRFTHSGRLLRIRRAADDVLFNWGICRAFHAKVPNADPKSPSEFSVDVAVICLKANAAKPTSLLPCHVNDFTTSTADLYTLTFDFTDIEGVARFRVNLPAEPDTESGRAQMVQTLSKLHRQYDDKVPLLTAEEMGVDDPQFEKLRVQVERLEAQLAENEFVQNPTKELESDFERFTHRAKLEKELNDIREELNQASRAIFSEELKQMMRVLRRLDYIDKDNVILRKARVACEITTTDENEILLTELLFKGVLNSMETEMIVALMSCLVNVHRTPDGFSLPEEFQQPLKELNEIVSRIATVSIESGVLQEGGVGVERTMPSLMEVTYMWAKGAKFVDIMSKTSAYEGEIVRMMRRLEEQLRQMAGAARSPAIGSMELHDKFLKGIQLIKRDIVFVSSLYL” the “soluble on expression in E. coli” value was “not soluble”.
With “MSLTQEFIDKVSSYLTPDVDIAPISQGAEAIVFTTTTHPYLPRAKDSHQKYIIKYRPPKRYRHPQIDQALTKHRTLNESRLLAKLYLIPGLCVPQLIACDPYNGFIWLEFLGEDLPGGHGFSNLKNFLWMHDQDPYSDLVATTLRKVGRQIGLLHWNDYCHGDLTSSNIVLVRDGARWTPHLIDFGLGSVSNLVEDKGVDLYVLERAILSTHSKHAEKYNAWIMEGFEEVYREQGAKGAKKLKEVTKRFEEVRLRGRKRSMLGEGHHHHHH” the “soluble on expression in E. coli” value was “not soluble”.
In the case of “MLYLHDIWVNWFEGEENGYNVCHFHEWRKDDQIELLDQVPLLKVSPALFHYIENSLSDLPKPLLDDVHQKAYVRKNHERIQLDYCFVVTDGAGVLAVDTIGYQIPIRKSRLIPRQEQLVYEMAAEAEERDYPLPRYEKEYHILSPAPELMCGLTRKERQLKQLLFMALDQLYSTKNTAQMRYWYTEWAPEKYAAIQKMSFDEAWEQLYNETKYGWSERHEQLCENLIKGQPFFEKLWEMEQEPKVN”, the “soluble on expression in E. coli” value is reported as “soluble”.
For “MINETKYMRQQITNLIQIIDTIKYNTLMTDWNIQTHIYKFNQIVTNELNKFKGFETSYIINENQVSYYEIITLLNKRPLRQVDYGNKIQYLNFYHTELSNALFAIKFAHLEHHHHHH”, the “soluble on expression in E. coli” value was “not soluble”.
With “KAFIDIFDSFDPEPIACGSIAQVYKGVLEGKPVAVKILRPHLIDIINIDLSILDDFKPVMKKVMGVGKNFDIDAFLLEIREMLTREVDLRIEAVNMRRFEDNFKNVKNVSVPKIYPDYC” the “soluble on expression in E. coli” value was “not soluble”.
For “MKTLLLLIPLVLTACGTLTGIPAHGGGKRFAVEQELVAASSRAAVKEMDLSALKGRKAALYVSVMGDQGSGNISGGRYSIDALIRGGYHNNPDSATRYSYPAYDTTATTKSDALSGVTTSTSLLNAPAAALTKNNGRKGERSAGLSVNGTGDYRNETLLANPRDVSFLTNLIQTVFYLRGIEVVPPEYADTDVFVTVDVFGTVRSRTELHLYNAETLKAQTKLEYFAVDRDSRKLLIAPKTAAYESQYQEQYALWMGPYSVGKTVKASDRLMVDFSDITPYGDTTAQNRPDFKQNNGKNPDVGNEVIRRRKGG”, the “soluble on expression in E. coli” value was “not soluble”.
For “MSLTGANDSNYDPFAGLSFRVGVAENKNTTFRNKMEDVHTYIANFAERVDWGYFAIFDGHAGKDTARWCGNNLHTLLEEEIDRNSDEGSPPPTPITGKDDLREDLYKCFVKADELIEKSGQGKSGCTAAVAVLRWESDNEEPVSHTKSQDGGKFDFKPTKNHKRLLYTSNVGDLRIVLCRAGQAYRLSYDHKATDTHEINRIEDNGGLVLKNRVNGVLAVTRSLGDTYMKLLVIGVPFTTATEITADDEFIIIACDGLWDVVSDKHACKLAAESFKQGYSPLQVAKKLCQFAIELSTTDNVTVMVVQLDNDVFSEGHHHHHH”, the “soluble on expression in E. coli” value was “soluble”.
For “GAMSSKNEWRKSAIANTLLYLRLKNIYVSADDFVEEQNVYVLPKNLLKKFIEISDVKIQVAAFIYGMSAKDHPKVKEIKTVVLVPQLGHVGSVQISNIPDIGDLPDTEGLELLGWIHTQTEELKFMAASEVATHSKLFADKKRDCIDISIFSTPGSVSLSAYNLTDEGYQWGEENKDIMNVLSEGFEPTFSTHAQLLLSDRITGNFIIPSGNVWNYTFMGTAFNQEGDYNFKYGIPLEFYNEMHRPVHFLQFSE”, the “soluble on expression in E. coli” value was “soluble”.
In the case of “MAHHHHHHMDLFNCQYCSISPFDYILDYLYGDTSSKKEEKKKKSNITYDDSSSNNVSQVVSKIDEEIEKRTTNEILLLCRAWENYVHPRAKEYWKDSQQLQNILCKIANGITKNDDPILGDDYACVFWYGDKNKNDNCPIISVKKGNDNIETITYVNRVLIFLYADEASFQELQKKPKKAFTMACGNTNCINLTHISLDD”, the “soluble on expression in E. coli” value is reported as “not soluble”.
For “MDIAVQLVDSGGGTLQAGKSLRLSCAISGLAFDGGAMGSEHRLTAGAMGWFRQAPGKDREFVAAISPRTDETYYAESLEGRFSVSRDAAATMVFLQADNVRLDDTASYYCAADEDVTPRVMGVIPHADHWGQGTLVTVSSAAALEHHHHHH”, the “soluble on expression in E. coli” value was “soluble”.
With “MPSLVIQDGGASIIRAVRPEEFAPQAPGKLLAIGRGVYAFLPDPLPPRLEWSLRLIALLDEARGALGELAGLLRQLPNPYLFIRPFIQKEAVLSSRIEGTQAGLLDVYALEAQVPLFPSPKLREDAQEVLNYIRALERGRELLQEIPLSLRLLKEVHAVLLRGVRGGGRAPGEFRRAQNWIGPPGSSLEEARYVPPPPGPMLEALDALERFWHSDHGLPPLVEIALVHYQFEAIHPFLDGNGRMGRLLITLMLLERGLLPEPALYLSAYFERHRTLYYDLLLGVSQRGAWEDWLAFFLEGVRTEAKDVAERARRLLDLWREWRERYGRKGGSAHILGLLDLLFERPVLTVPLVKDRLGITHAWANRLVQRLEEDGILTPVSERKRNRLYAAKEILEILEEARNA” the “soluble on expression in E. coli” value was “soluble”.
For “MGSDKIHHHHHHMAHPFLRTIFEVVITLYMLHNLYKVLGDDEMDLEEMSSFFNKRVNEYEEHMMNNVGGANQYYIETAKLIPRGKEINILDLGCGTGLELDEIFKINNTVRVTGIDLAENMLRKIKEKHKDKLDRLTLIVGDYFSCDIGEKVFDAALSVETLHHFNHEQKIKLYKKIVRSLKDNGVYIEADYMAPNQDYEDHCFNENKRIRLELGIKDGFYHYDTPCTVENQIKMLYKSGFKSVEKVFKAENTVILLAKK”, the “soluble on expression in E. coli” value was “not soluble”.
For “MSAAASMFVRQFFHGTRADLSPGELIVVGYQSNFTTAAPLSWVYFSGTLDAAIWGAELAAGDAPQRIYVVEPTGPFEDDPNLTDKKFPGNPTLSYRSKHPLRIVAEMTKWQGHSPERVQQMKDGLARLSAEGAEIID”, the “soluble on expression in E. coli” value was “not soluble”.
With “GAQVSTQKTGAHESIIHYTNINYYKDAASNSANRQDFTQDPGKFTEPVKDIMVKSLPALN” the “soluble on expression in E. coli” value was “soluble”.
In the case of “MGSDKIHHHHHHMLGTLKKLRSRLDEADLVQYNLVVGDQELPLNPLIGQTLSLTHTGNIFCCNCGRKTKKSYSQGHCFPCMQKLASCDMCIMKPETCHFDQGTCREPQWAQSHCFVPHYVYLSNTSGIKVGITRNNQLPTRWIDQGATQGLAIFKVSTRQLSGLIEVELAKLVKDKTNWQAMLKSNAADIDLNAKAQELIPHIEHRLNELAMEKGEYKIERLTETIQQINYPMTAFPKKISSHNFDKVPEVTGVLLGIKGQYLIFDTGVINIRKFSAYEVTVTTN”, the “soluble on expression in E. coli” value is reported as “not soluble”.
With “MKVILLITIFLSFYSSAETIVVEDTLFYEVAPTSKDDLLETLNSSSPIREDGNVFHGYTKYEINWRFWWKSNNNQCAFTKVETTLKLKYTMPQLTSSKSDVNVVWSNWYPNLEKHEKGHGKLAKDTAFKIEKDLLSIGPKANCNLLEKAGNKLAYKLMATLKKANKQYDIKTNHGETQNAWLYLHL” the “soluble on expression in E. coli” value was “not soluble”.
With “MGSDKIHHHHHHMDNLLSIKSLCDEDIDFVTEISRKEGFAPGVGDLRIYQNTDKQGLWVGWLDNNPIGCIAGVRYNQYYGFLGLFLVIEEYRGRGFGLQLWKKALSHLSDLPCVGLEAAPERITDYSKWGFTISSKTTRWQLLGDGKLVEEYSKNDDFDDFSFVEGSSIPQDAVKKFDEKRETTPRPHFLSNWLNHPAGKVIAVIDKKNCCHGFGRIRPCLLQNGDGWRIGPLMADTPMLLQILLKKLIESHPGLIIIDAPGLNKSASEVFRKLGFKSESETFRMYRGSQPPVSMNDVYGLACLELG” the “soluble on expression in E. coli” value was “not soluble”.
With “MGVKVASSSTFLQWTTQPIIHQSSSPSQTLASGTITSPSKRRSTVHDGRFLSCRFVTQRLNRSALFGTPSTKLHRPKSCELWKSSSSSSRPIKTQSFRRVYSANLDPFSDEEFSKKIQELTLRFNIPHHDDDENSIEPPWNEMVHLSSIEMKANSVDLPLSLRIIKKKRQWEEGVKQAGESACCSMNKAFSSMVFMIRELQSFTLHMREILFYEDLQEILLRVREEMQQSFVWLFQQVFSATPTLMVYVMILLANFTVYSIGNNSSALAAVAPLPPTITELTTVSETEETNVKFDSSVVKTFFVSSPSGSIASVGGNNNGGGGNVKPVLSGTDGDGSDGSEQFRTIIPEGVSQLSSSNFGSEPSVSGQDEHRLWNSMVEEAERMQYSNIDDSLDQETRKRFVSHVEARVEAEEDTGYFKTELMYQTELSQEPNNPLLLANYAQFLYLVSNDHDRAEEYFKRAVGVEPKDAEAFSKYATFLWRARDDLWAAEETFLEAIDADPTNSYYAANYANFLWNTGGDDTCFPLDDESHEDTI” the “soluble on expression in E. coli” value was “not soluble”.
